Reference: patent US20230295559A1 (PIVOT BIO, published 2023)

Target: T1, glutamine synthetase GlnA (Paenibacillus polymyxa CI41)
T1 chain: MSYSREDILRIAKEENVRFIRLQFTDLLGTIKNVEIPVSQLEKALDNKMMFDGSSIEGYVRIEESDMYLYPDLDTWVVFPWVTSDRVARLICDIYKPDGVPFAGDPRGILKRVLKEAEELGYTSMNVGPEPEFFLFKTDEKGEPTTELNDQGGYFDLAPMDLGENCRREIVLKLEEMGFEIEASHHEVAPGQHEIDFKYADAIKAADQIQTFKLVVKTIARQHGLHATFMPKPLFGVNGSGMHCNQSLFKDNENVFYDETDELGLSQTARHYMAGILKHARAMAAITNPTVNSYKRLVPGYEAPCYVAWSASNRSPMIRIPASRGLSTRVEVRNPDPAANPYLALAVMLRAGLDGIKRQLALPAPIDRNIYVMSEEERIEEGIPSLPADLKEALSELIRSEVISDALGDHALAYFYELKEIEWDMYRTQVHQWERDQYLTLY
Test: cell-based or functional assay

B1: GlnR with C-terminal deletion (Δ113-137) (other)
chain: MGDEIRRNMALFPIGIVMKLTDLSARQIRYYEQHNLIVPARTSGNQRLFSFNDVERLLEIKALIEKGVNIAGIKQVMNPVTKESEEATVITADTEVKRREMSDTQLHRLLKQ
  overall nitrogenase activity (acetylene reduction assay): 5 fold
